Assay results: the supplement of paper PMC12042874
± gives the uncertainty stated by the source.

assay: amyloid nucleation score (Sup35N fusion, yeast selection) (log enrichment); library NNK2; higher = more nucleation; inactive = no reads after selection
Outline: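 The nucleation score is the log enrichment of output over input reads, calculated with DiMSum and centred on the mode score of non-aggregating sequences. Sequences with under 100 input reads were excluded. Reads came from Illumina sequencing of plasmid inserts from psi-negative yeast expressing Sup35N fused to peptides of 20 random codons, induced 24 hours with 100 μM copper sulfate and grown 7 days at 30°C without adenine and uracil.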

| Substance | amyloid nucleation score |
| --- | --- |
| DAMSMCP | 7.398 ± 0.061 |
| DCFTRYGCAGKYRVGAQGSS | 1.47 ± 0.47 |
| DCHEGRTNPRALKCFTEERG | 0.173 ± 1.1 |
| DCLICFKDICNFENNEMIGA | -0.556 ± 0.2 |
| DCLRCNHYTVCNMYDRFFLL | inactive |
| DCPLFQRLYRQS | -0.211 ± 0.22 |
| DCSDLVSLLCNVRHAHGRWL | 4.42 ± 0.067 |
| DCSNDRKIYYNWAIRVVRTD | 0.076 ± 0.35 |
| DDVSHPHLKCIVWD | inactive |
| DEGVPSGYVTAL | -0.354 ± 0.76 |
| DEKIYLVSG | 0.472 ± 0.66 |
| DEPLWKLKFKFEWFIRTLVI | -1.37 ± 0.76 |
| DFAGSKDDWTSQMMGVLDGL | -0.689 ± 0.44 |
| DFESGWFSVDFVN | -0.853 ± 0.55 |
| DFGKIGEWDWAGGVYLSAWR | -0.137 ± 1.1 |
| DFGVWFFFYTHQLSA | -0.113 ± 1.1 |
| DFISCVLFSLFFRTLSRKGH | -0.679 ± 0.64 |
| DFMFFVYPSNSMLKGISRGR | -1.77 ± 0.48 |
| DFNLWPLC | -0.373 ± 1.1 |
| DFVHVEIDPYQVGGGFQ | 8.764 ± 0.046 |
| DFYSNEWRGDEICVQLLELV | 0.393 ± 0.66 |
| DFYSNYILLRSSP | -1.84 ± 1 |
| DGFMLMFFTITIRFPNALQV | inactive |
| DGFSFIVRSFVWRNNHADAG | 3.71 ± 0.12 |

| Substance | amyloid nucleation score |
| --- | --- |
| DGFVGALDGVISSCWNTLRG | -0.701 ± 0.63 |
| DGSHLSKTDVK | 0.113 ± 0.2 |
| DGVRGLYKRLRMCTTCLCTL | 6.48 ± 0.079 |
| DGVSCSRVNAVVYARLSQMG | 1.3 ± 0.23 |
| DHADWNAYHISTEV | 3.25 ± 0.05 |
| DHLNV | -0.401 ± 0.63 |
| DIFCLRPYKLPGYTFYYFVY | inactive |
| DINSQEVCSVTELGR | -0.247 ± 0.45 |
| DITTEVKGSLLVMLSGDNAG | 0.807 ± 0.31 |
| DIYPRLLEDVFYPFVQPHLF | -0.505 ± 1.1 |
| DKMYVIIVGPLAAMENVNNT | 0.024 ± 0.48 |
| DKSFVSLSRFHSGRLEIRVM | -0.886 ± 0.49 |
| DKYAGCNSDDINWMKDRVSG | 0.029 ± 0.5 |
| DLAFFMLHYLHIRRCKDYPR | inactive |
| DLCQSHLPCHMRRTSFRQLP | 0.606 ± 0.36 |
| DLHPGNSNAD | -0.146 ± 0.54 |
| DLKVDQSVWRSLDMNALVAN | 1.27 ± 0.44 |
| DLNYFSTMGEVLYMFSVLTY | -0.08 ± 1 |
| DLRRSKSFDDTNEHWHSGFR | -0.607 ± 0.64 |
| DLSHNVNVCICFCWAMRYDA | 8.342 ± 0.045 |
| DLSRLCVGHAVI | 0.446 ± 0.18 |
| DLSVLDLGVLFINRFTRTLE | inactive |
| DLTCSC | 0.804 ± 0.3 |
| DLYNCMHWQHVEYIMLLHGL | -0.846 ± 0.35 |

| Substance | amyloid nucleation score |
| --- | --- |
| DLYQALSISV | -0.308 ± 0.39 |
| DMGGPTTIY | 0.798 ± 0.67 |
| DMLPVRVVAHWCVVARCTRV | 0.965 ± 0.2 |
| DMLVCNGLFVFRASKGTIDA | -0.837 ± 1.1 |
| DMLVDYSIKDDRVYKVRLPM | -1.61 ± 0.62 |
| DMVCRY | -0.272 ± 0.36 |
| DNCFAAFSFRRGVAYVDL | -0.52 ± 0.38 |
| DNDMG | -0.267 ± 0.25 |
| DNDYTWIKFLKCGRADASGT | 0.157 ± 0.5 |
| DNFFIMALHSSREVDMKNRS | -1.53 ± 1 |
| DNKWILDRLIQHSLDHKVCR | -0.332 ± 0.63 |
| DNMDFMMCKINSGLNLTLSS | -2.33 ± 0.62 |
| DNVMLYKRKKQRPIMVPWSA | -0.488 ± 0.35 |
| DPLPMSYRVYSARSW | -0.81 ± 1 |
| DPNLGLSTW | 0.47 ± 0.34 |
| DPNLPETVTGVIMFASVGGA | -0.13 ± 0.76 |
| DPSGYHVSFHSGDGGCEYC | 2.71 ± 0.085 |
| DQAHRGSCDVS | 0.214 ± 0.63 |
| DQKTMTTVL | 0.368 ± 0.45 |
| DRAVRQFIFLVYGSSLDWDI | 0.044 ± 0.79 |
| DREFLGDCWVLAELSKTRLI | 3.24 ± 0.093 |
| DRFTAGLIFCMLCLGRYVCM | inactive |
